The values that follow come from the supplement of paper PMC10567573.

± gives the standard deviation.

The data set can be described thus: protein stability index of a GFP-peptide fusion (GPS, HEK-293T) (PSI 1-6); higher = more stable.
[1] abbreviates: treatment: DMSO, c terminus: a fixed tail appended.
[2] abbreviates: treatment: MLN4924 1 uM, 8 h, c terminus: a fixed tail appended.
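Further: 24-mer peptide tiles fused after GFP, lentivirally expressed, FACS-sorted into six equal bins by GFP/DsRed ratio, decoded by Illumina sequencing, PSI is the read-weighted mean bin number.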

On to MRQDLEEERVALNTEIEKLGRSIV [PKD2L1], for which the protein stability index is 4.29 ± 0.13 under setting [1] and 4.38 ± 0.23 under setting [2].

For MSWRGRSTYYWPRPRRYVQPPEMI [GAGE1], the protein stability index by setting is: under setting [1], 2.64 ± 0.43; under setting [2], 2.55 ± 0.24.

Consider MTTSHQPQDRYKAVWLIFFMLGLG [SLC29A1], for which the protein stability index reads like this: under setting [1], 2.52 ± 0.61; under setting [2], 2.41 ± 0.43.

As for MVGQKDSVILSVKFSPFGQWWASV [TLE6], the protein stability index stood at 2.95 ± 0.35 under setting [1] and 2.89 ± 0.35 under setting [2].

Turning to MVVDFWTWEQTFQELIQEAKPRAT [RTP4], the protein stability index runs as follows: under setting [1], 2.5 ± 0.49; under setting [2], 2.2 ± 0.36.

Consider MYGVDLHHAKDSEGVEIMLGVCAS [EPB41L3], for which the protein stability index stood at 2.71 ± 0.3 under setting [1] and 2.77 ± 0.51 under setting [2].

In turn, MYHPRELYPSLGAGYRLGPAQPGA [TBX6] displayed a protein stability index under setting [1] of 2.78 ± 0.25 and a protein stability index under setting [2] of 2.71 ± 0.11.

For NATAPRSPSHSPEHRRTARRTPPG [ELOA2], the protein stability index by setting is: under setting [1], 5 ± 0.15; under setting [2], 5.2 ± 0.36.

In the case of NCPAHWLAQDWERCNTTCGRGVKK [ADAMTSL2], the protein stability index worked out at 4.16 ± 0.19 under setting [1] and 4.42 ± 0.16 under setting [2].

Take NDIRIFLEKVLEENAQKKRFNQVL [VPS39]: the protein stability index amounted to 2.1 ± 0.24 under setting [1] and 2.27 ± 0.29 under setting [2].

Consider NEKQLHTLRTCYAANPRPDALMKE [ISL2], for which the protein stability index turned out to be 4.05 ± 0.43 under setting [1] and 4.15 ± 0.53 under setting [2].

For NFLACLASFCVETNNGAGFGLSIL [SCAMP3], the protein stability index came out at 3.02 ± 0.55 under setting [1] and 2.99 ± 0.41 under setting [2].

Turning to NFLTQRENTIAGANHTHTFYGHSH [C10orf62], the protein stability index turned out to be 3.1 ± 0.26 under setting [1] and 3.09 ± 0.2 under setting [2].

NFQNIPKETELPFPKQILDQNNVI [MIA2]: the protein stability index came to 3.54 ± 0.34 under setting [1] and 3.45 ± 0.24 under setting [2].

In the case of NFSLATNTKYSVYIYVYFHTKLTS [R3HDM1], the protein stability index is, setting by setting: under setting [1], 2.6 ± 0.41; under setting [2], 2.36 ± 0.9.

NHIGMGVRYNAEKKKVGNYYTTPI [YJU2B]: the protein stability index under setting [1] amounted to 3.03 ± 0.22 and the protein stability index under setting [2] came to 3.27 ± 0.18.

Regarding NIGKSHQGLKLYAVEISDHPGEHE [CPXM2], the protein stability index runs as follows: under setting [1], 4.24 ± 0.13; under setting [2], 4.07 ± 0.41.

For NIMPYESTRVCLQPIRGVEGSDYI [PTPRD], the protein stability index under setting [1] worked out at 2.91 ± 0.084 and the protein stability index under setting [2] was 3.09 ± 0.18.

On to NKVAGHPLAQNERCLHMFLQDEII [SNX3], for which the protein stability index is, setting by setting: under setting [1], 2.64 ± 0.2; under setting [2], 2.7 ± 0.46.

As for NNHESLDEELHLLIISCRKLFYFK [FBXO39], the protein stability index by setting is: under setting [1], 2.25 ± 0.32; under setting [2], 2.12 ± 0.16.

Consider NPKLPNISLDVLQPSFPEILLESH [POMT2], for which the protein stability index was found to be 3.52 ± 0.21 under setting [1] and 3.84 ± 0.34 under setting [2].

Take NPNFEVAESDYSNNIMKCRSRYDG [LOXL2]: the protein stability index is 4.42 ± 0.24 under setting [1] and 4.42 ± 0.33 under setting [2].

With NQNLSNRPSFNRTPIPWLSSGEPV [MYOZ1], the protein stability index reads like this: under setting [1], 3.43 ± 0.38; under setting [2], 3.5 ± 0.15.

As for NQPSGLIRTYLGRSPLVSGDESSL [RHOBTB3], the protein stability index is 3.85 ± 0.25 under setting [1] and 3.84 ± 0.3 under setting [2].

Regarding NRASLYSFPEPEAAQPMTKKRKVD [PRAME], the protein stability index reads like this: under setting [1], 4.54 ± 0.27; under setting [2], 4.74 ± 0.14.

NREHLVMMEKILGPIPSHMIHRTR [CLK3] had a protein stability index under setting [1] of 2.79 ± 0.34 and a protein stability index under setting [2] of 2.89 ± 0.33.

NRGINITIYGKTFRVVDCDQFTQV [EFHC1]: the protein stability index by setting is: under setting [1], 2.24 ± 0.53; under setting [2], 2.72 ± 0.51.

Take NSPSSPSSSAASSSSPSSSSAVV [RHOBTB2]: the protein stability index by setting is: (treatment: DMSO, c terminus: native) 5.31 ± 0.12; (treatment: MLN4924 1 uM, 8 h, c terminus: native) 5.456 ± 0.023.

Sequence NTPMEETVRAMTHVINQGMAMYWG [KCNAB2] registered a protein stability index under setting [1] of 2.92 ± 0.39 and a protein stability index under setting [2] of 3.13 ± 0.96.

NVEMDAAPGVDLSRILNEMRDQYE [KRT16]: the protein stability index runs as follows: under setting [1], 4.34 ± 0.18; under setting [2], 4.46 ± 0.37.

In the case of NVKYLKKILDELEKVLDQVETELQ [GDAP1], the protein stability index came to 4.25 ± 0.077 under setting [1] and 4.23 ± 0.14 under setting [2].

Take NYRIAGARLMRSNYPPPLSSAALR [C6orf223]: the protein stability index came to 3.16 ± 0.41 under setting [1] and 3.2 ± 0.3 under setting [2].

For PAAGRELPPDMTVVPGDHLLEPEV [KCNA3], the protein stability index by setting is: under setting [1], 5.3 ± 0.15; under setting [2], 5.31 ± 0.08.

Take PADGWKGERPRSEEDNELNLPNLA [GCH1]: the protein stability index turned out to be 5.33 ± 0.34 under setting [1] and 5.36 ± 0.35 under setting [2].

Take PALDIFGDLFESTPEVAAAPKPDA [SNAP91]: the protein stability index runs as follows: under setting [1], 4.57 ± 0.21; under setting [2], 4.67 ± 0.27.

For the sequence PASFPTWGCDLGVVTRVVTGVYPR [BRF1], the protein stability index is, setting by setting: under setting [1], 2.37 ± 0.16; under setting [2], 2.39 ± 0.3.

PDGGGPWLEDEPGRGAQGENERVR [ZSWIM9] displayed a protein stability index under setting [1] of 5.41 ± 0.43 and a protein stability index under setting [2] of 5.5 ± 0.3.

Regarding PDRVYIHPDSPATGAHWMRQPVSF [TBX6], the protein stability index amounted to 2.45 ± 0.22 under setting [1] and 2.54 ± 0.098 under setting [2].

As to PDVTRVGLLQYGSTVKNEFSLKTF [MATN2], the protein stability index is 2.94 ± 0.23 under setting [1] and 2.85 ± 0.44 under setting [2].

PEENYPSLQMSSAEMPHTETVSPL [NANOGP8]: the protein stability index under setting [1] stood at 5.25 ± 0.12 and the protein stability index under setting [2] is 5.28 ± 0.18.

For PEGQKVLFVTFLLIYMVTIMGNLL [OR4A15], the protein stability index by setting is: under setting [1], 3.06 ± 0.36; under setting [2], 3.24 ± 0.5.

For the sequence PELNNNQYNRSSNSNGGNLNSPPG [CDC14A], the protein stability index was 4.98 ± 0.15 under setting [1] and 4.84 ± 0.27 under setting [2].

As to PGPMDWVPRYTGVAPQDQCKLTCQ [ADAMTS4], the protein stability index by setting is: under setting [1], 3.77 ± 0.35; under setting [2], 4.14 ± 0.36.

In the case of PHIEEQQKKIESYLHNHFIGEGMT [TENT5D], the protein stability index runs as follows: under setting [1], 3.35 ± 0.33; under setting [2], 3.59 ± 0.27.

With PILKRKLPGSDVSGRLMGSPPVPG [FBXO28], the protein stability index reads like this: under setting [1], 3.9 ± 0.3; under setting [2], 4 ± 0.1.

Turning to PKNREYDRFYVINYLVRLSFHNLK [ZNF277], the protein stability index is, setting by setting: under setting [1], 3.03 ± 1.2; under setting [2], 2.29 ± 0.31.

For the sequence PLGTQVAVNAHQWLDNPERWNKVK [SEPHS2], the protein stability index is, setting by setting: under setting [1], 3.65 ± 0.084; under setting [2], 3.61 ± 0.26.

As to PLIIAARNGHAKVVRLLLEHYRVQ [FEM1B], the protein stability index is 2.36 ± 0.36 under setting [1] and 2.39 ± 0.2 under setting [2].

For PLPEAIDPDVGVNSLQSYQLSPNK [PCDHGA10], the protein stability index was 5.35 ± 0.26 under setting [1] and 5.25 ± 0.24 under setting [2].

On to PLPKRVAKVPRPPSTLLPTPEEQG [FOXJ1], for which the protein stability index by setting is: under setting [1], 4.97 ± 0.29; under setting [2], 4.82 ± 0.34.

Turning to PLPTDPMLGLALGGLVVSAASLAG [TSPAN10], the protein stability index worked out at 2.96 ± 0.63 under setting [1] and 2.65 ± 0.63 under setting [2].

PLPVSADDTPEVLNRALSNLSSRW [CDS2] came in with a protein stability index under setting [1] of 3.82 ± 0.17 and a protein stability index under setting [2] of 3.83 ± 0.19.

As for PLQGTDEDAVASADFSSMLSEEEK [TPD52L1], the protein stability index was found to be 5.48 ± 0.58 under setting [1] and 5.69 ± 0.094 under setting [2].

For PLRERARKLSQGILIIRFEMPYNI [YJU2B], the protein stability index worked out at 2.9 ± 0.7 under setting [1] and 2.62 ± 0.39 under setting [2].

For the sequence PLTFDKNENMAAKKKSVAMHTNYL [GNB5], the protein stability index worked out at 3.33 ± 0.26 under setting [1] and 3.46 ± 0.26 under setting [2].

On to PMAEYNMPQYILREFKVTDARDGQ [PTPRD], for which the protein stability index under setting [1] was 3.8 ± 0.24 and the protein stability index under setting [2] amounted to 3.75 ± 0.27.

Turning to PNAFIGSDVVDWLYHNVEGFTDRR [DVL3], the protein stability index is, setting by setting: under setting [1], 3.13 ± 0.26; under setting [2], 3.15 ± 0.32.

As to PNLSLASEDEEEYESGYAFLPDLL [SMG5], the protein stability index runs as follows: under setting [1], 4.32 ± 0.2; under setting [2], 4.47 ± 0.15.

As to PPVPCVPSVPCTPAPQVGTQIRTI [KRT36], the protein stability index reads like this: under setting [1], 4.46 ± 0.22; under setting [2], 4.31 ± 0.2.

For PQQAPQDDGSQDPEVLDRESRDRP [PWWP2B], the protein stability index came out at 5.63 ± 0.29 under setting [1] and 5.47 ± 0.14 under setting [2].

As to PQVLSQEFTELLKVMIHPDPERRP [WEE1], the protein stability index is 3.45 ± 0.17 under setting [1] and 3.43 ± 0.16 under setting [2].

Turning to PRCPRMVLSLKEGAREEDLDAVEA [FBXO3], the protein stability index is, setting by setting: under setting [1], 5.32 ± 0.36; under setting [2], 5.27 ± 0.17.

As for PRGKPPLNTRSQAPLLRWVLTLSF [HMOX1], the protein stability index by setting is: under setting [1], 2.81 ± 0.28; under setting [2], 3.1 ± 0.61.

With PRGSETERLLTPNPGYGTQAGPSP [MCOLN1], the protein stability index runs as follows: under setting [1], 4.41 ± 0.18; under setting [2], 4.79 ± 0.28.

Consider PRHPIRALVGDEVELPCRISPGKN [MOG], for which the protein stability index under setting [1] amounted to 4.62 ± 0.17 and the protein stability index under setting [2] came out at 4.72 ± 0.21.

For PSDKMKWCLRVNPKGLDDESKDYL [SPOPL], the protein stability index came out at 3.22 ± 0.34 under setting [1] and 3.81 ± 0.47 under setting [2].

PSEHVQGKSPVNMVTVAMVAGQCE [ZNF649]: the protein stability index by setting is: under setting [1], 4.14 ± 0.34; under setting [2], 4.26 ± 0.14.

Regarding PSFHPHAGGGSQENLDNDTETDSL [DVL3], the protein stability index worked out at 5.58 ± 0.31 under setting [1] and 5.5 ± 0.29 under setting [2].

Turning to PSLPAAGEQDCCGERVVINISGLR [KCNA3], the protein stability index reads like this: under setting [1], 3.79 ± 0.36; under setting [2], 3.76 ± 0.29.

With PSSFPSSSSSSSSSCYPLIPSTPE [MAGEA10], the protein stability index reads like this: under setting [1], 4.32 ± 0.36; under setting [2], 4.45 ± 0.13.

With PSSLSSSEGSSSSSSSSSSSSSSA [NFE2L1], the protein stability index reads like this: under setting [1], 5.51 ± 0.22; under setting [2], 5.47 ± 0.12.

Consider PSTTERISTSGQAGTSSHGCWAWP [PXN], for which the protein stability index under setting [1] worked out at 3.04 ± 0.21 and the protein stability index under setting [2] came to 3.17 ± 0.23.
